{
  "source": "patent US10393755B2",
  "about": "“Compositions and methods for treating eye infections and disease” (UNIVERSITY OF VIRGINIA PATENT FOUNDATION, priority 2014, dated 2019)",
  "molecules": {"B1": {"name": "LSI: lacritin fused to diblock ELP (VPGSG)48(VPGIG)48; forms thermoresponsive nanoparticles (protein)", "chain": "GEDASSDSTGADPAQEAGTSKPNEEISGPAEPASPPETTTTAQETSAAAVQGTAKVTSSRQELNPLKSIVEKSILLTEQALAKAGKGMHGGVPGGKQFIENGSEFAQKLLKKFSLLKPWAGLVPRGSGVPGSGVPGIGY", "modifications": "ELP lacritin fusion construct; (129)..(133) the sequence VPGSG is directly repeated 48 times; (134)..(138) The sequence VPGIG is directly repeated 48 times", "notes": "forms thermoresponsive nanoparticles"}},
  "key": {"[1]": {"assay": "Phase behavior and nanoparticle formation (optical density, DLS, TEM)", "type": "physicochemical", "parameters": "Phase transition temperature / Tt1, critical micelle temperature (CMT): dose or concentration left out as unconfirmed", "description": "The phase diagram for LSI fusion protein was characterized by optical density change at 350 nm as a function of solution temperature using a DU800 UV-Vis Spectrophotometer (Beckman Coulter, Brea, Calif.). Tt was defined at the point of the maximum first derivative. Self-assembly of nanoparticles was measured using dynamic light scattering (DLS) using a DynaPro-LSR Plate Reader (Wyatt Technology, Santa Barbara, Calif.). Light scattering data were collected at regular temperature intervals (1° C.) as solutions were heated from 5 to 50° C. The results were analyzed using a Rayleigh sphere model and fitted into a cumulant algorithm based on the sum-of-squares value.\nThe TEM imaging was carried out on a FEI Tecnai 12 TWIN microscope (Hillsboro, Oreg.) at 100 kV. Briefly, a 100 uM solution (5 uL) was initially deposited on a copper grid with carbon film (CF400-Cu, Election Microscopy Sciences, Hatfield, Pa.). After removing the excess amount of solution with filter paper, the samples were negatively stained with 2% uranyl acetate, followed by removing excess uranyl acetate after 30 s. b The samples were then dried under room temperature for at least 3 h before use in imaging."}, "HCE-T cells": {"system": "HCE-T cells", "assay": "Ca2+ imaging (Fluo-4 AM)", "type": "cell-based, human", "description": "SV40-immortalized HCE-T cells (Riken Cell Bank, Japan) were grown in keratinocyte-SFM media (KSFM, Life Technologies, Rockville, Md.) containing bovine pituitary extract (BPE, 50 mg/ml) and epidermal growth factor (EGF, 5 ng/ml). Cell passages 4-6 were used for Ca2+ imaging, scratch and uptake assays in 35 mm coverslip-bottomed dishes. To optimize responsiveness upon stimuli, cells were starved with EGF and BPE free medium for 24 h before experimentation.\nHCE-Ts were rinsed twice with Ca2+ and Mg2+ free phosphate buffer saline (PBS) and incubated at 37° C. for 20 min fresh KSFM medium containing […] calcium probe Fluo-4 AM (Invitrogen Life technologies, NY). […] The cells were illuminated at 488 nm, and their emission was monitored every 3.15 s at 510 nm using Zeiss LSM 510 Meta confocal microscope system. The field of interest contained 24 to 45 cells, and the fluorescent intensity change was calculated for each region with image-analysis software. Ca2+ dynamics were evaluated using the changes in fluorescence intensity of Fluo-4 AM. The data are presented as percentage change in fluorescence intensity at each time point (Ft) to the first time point (F0) reading: (Ft−F0)/F0×100%."}, "[2]": {"system": "NOD mice corneal epithelium", "assay": "Murine corneal abrasion and recovery study", "type": "in vivo, mouse", "description": "Briefly, 12 week female NOD mice were anesthetized with an i.p. injection of xylaxine/ketamine (60-70 mg+5 mg/kg) and placed on a heating pad. After cleaning the ocular surface with eye wash (OCuSOFT, Inc., TX), the corneal epithelium of the right eye was removed down to the basement membrane using an algerbrush II (The Alger Company, Inc., TX); the left eye was left intact as a contra lateral control. Mice were allowed to heal for 24 h with 2 doses ([…]) of KSFM medium containing BPE (50 mg/ml) and EGF (5 ng/ml), […] LSI, […] SI, or no treatment at 12 h intervals. After staining the ocular surface with […] 0.6 mg/ml fluorescein (Akorn, Ill.), images of the abrasion wound were captured using a Moticam 2300 camera after 12 h and 24 h."}, "HCE-T monolayers": {"system": "HCE-T monolayers", "assay": "In vitro scratch closure assay", "type": "cell-based, human", "conditions": "10 nM, 24 h, compared to plain medium without growth factors", "description": "For a scratch assay, confluent HCE-T monolayers were scraped in a straight line to create a scratch wound with a p200 pipet tip. Cells were rinsed with KSFM medium without BPE or EGF to remove debris and then incubated with fresh KSFM medium containing BPE (50 mg/ml) and EGF (5 ng/ml), LSI, or medium without growth factors (No treat). Phase contrast images of the wound at the beginning and after 24 h treatment were captured using Zeiss LSM 510 Meta confocal microscope system."}, "HCE-Ts": {"system": "HCE-Ts", "assay": "Exogenous cell uptake assay (rhodamine labeled)", "type": "cell-based, human", "conditions": "NHS-rhodamine labeled", "description": "SI and LSI nanoparticles were conjugated with NHS-rhodamine (Thermo Fisher Scientific Inc, Rockford, Ill.) via covalent modification of the amino terminus. Conjugation was performed in 100 mM borate buffer (pH 8.0) for 2 h (LSI) or overnight (SI) at 4° C. followed by desalting on a PD10 column (GE Healthcare, Piscataway, N.J.) to remove free dye. Briefly, after the cells were rinsed with fresh medium without BPE and EGF, […] rhodamine labeled proteins were added into the dish. After incubation at 37° C. for different time points, the cells were rinsed and images were acquired using Zeiss LSM 510 Meta confocal microscope system."}},
  "data": [
    {"molecule": "B1", "values": [
      {"measurement": "Tt1, critical micelle temperature (CMT)", "setting": "[1]", "value": 32.3, "unit": "°C"},
      {"measurement": "Hydrodynamic radius compared with LS96", "setting": "[1]; DLS, 37° C.", "value": "much larger hydrodynamic radius than LS96"},
      {"measurement": "Nanoparticle size by DLS above Tt", "setting": "[1]; above Tt", "value": "130-140 nm"},
      {"measurement": "Nanoparticle size by DLS below Tt", "setting": "[1]; below Tt", "value": "30-40 nm"},
      {"measurement": "Average diameter by TEM", "setting": "[1]; dried from room temperature", "value": "67.1+/−11.5 nm"},
      {"measurement": "Phase transition temperature", "setting": "[1]; optical density", "value": 18.4, "unit": "°C"},
      {"measurement": "Maximum fluorescence intensity change compared to baseline (F0)", "setting": "HCE-T cells; Fluo-4 AM loaded HCE-T cells", "value": "4.399+/−1.043 fold"},
      {"measurement": "Ca2+ influx peak duration on second treatment", "setting": "HCE-T cells; same concentration, second time, from 40", "value": 70, "unit": "s"},
      {"measurement": "Percentage of initial wound area (PctArea)", "setting": "[2]; 5 ml of 100 mM topical at 0 and 12 h, 12 and 24 hours, compared to SI, EGF+BPE, no treatment", "value": "significantly decreased"},
      {"measurement": "Abrasion wound healing, LSI compared with LS96", "setting": "[2]; 12 h, eight mice per group", "value": "significantly (p<0.05) faster"},
      {"measurement": "Corneal epithelium histology after 24 h", "setting": "[2]; hematoxylin and eosin", "value": "complete recovery"},
      {"measurement": "Scratch wound healing", "setting": "HCE-T monolayers", "value": "significantly accelerated scratch wound healing"},
      {"measurement": "Cytosolic fluorescence (cell uptake)", "setting": "HCE-Ts", "value": "significantly higher cytosolic fluorescence than SI nanoparticles"},
      {"measurement": "Time to significant cell entry", "setting": "HCE-Ts", "value": 10, "unit": "m"}
    ]}
  ]
}
